Source: patent US20260265348A1 (HEIDELBERG IMMUNOTHERAPEUTICS, published 2026)

Assays:
[1] = molecular target: T1, recombinant HSV-1F glycoprotein B (gB) ectodomain (aa 30-729), trimeric (HSV-1 strain F, UniProt P06436 30-729); experiment: BLI (Octet), biotinylated gB on streptavidin tips, IgG in solution; full IgG, not Fab
T1 construct: also called recombinant HSV-1 gB; HSV-1F gB

[2] = molecular target: T2, HSV-1F gB R304Q (HDIT101-resistance mutant) (HSV-1 strain F, UniProt P06436 30-903); experiment: flow cytometry of HEK293T cells transfected with a gB plasmid, FITC anti-human Fc secondary antibody, iMFI
T2 construct: also called gB of HSV-1FHDIT101R

[3] = molecular target: T1, recombinant HSV-1F glycoprotein B (gB) …; experiment: BLI (Octet), biotinylated gB on streptavidin tips, Fab dilution series, global 1:1 fit
[4] = molecular target: T1, recombinant HSV-1F glycoprotein B (gB) …; experiment: BLI (Octet), biotinylated gB on streptavidin tips, Fab dilution series, global 1:1 fit; Fab; HSV-1F gB
[5] = molecular target: T1, recombinant HSV-1F glycoprotein B (gB) …; experiment: BLI (Octet), Fab, Kd=kdis/ka
HSV-1F gB Y326A = HSV-1F gB Y326A (HSV-1 strain F, UniProt P06436 30-903); experiment: cell-based or functional assay
HSV-1F gB R335A = HSV-1F gB R335A (HSV-1 strain F, UniProt P06436 30-903); experiment: cell-based or functional assay
[6] = molecular target: T2, HSV-1F gB R304Q (HDIT101-resistance …); experiment: cell-based or functional assay
[7] = molecular target: glycoprotein B (gB) of HSV-1 strain F, full length, wild type (HSV-1 strain F, UniProt P06436 30-903); experiment: cell-based or functional assay
[8] = molecular target: HSV-1F gB R335Q (HDIT102(H4)-resistant escape mutant) (HSV-1 strain F, UniProt P06436 30-903); experiment: cell-based or functional assay
HSV-1F gB D199A = HSV-1F gB D199A (HSV-1 strain F, UniProt P06436 30-903); experiment: cell-based or functional assay
HSV-1F gB K320A = HSV-1F gB K320A (HSV-1 strain F, UniProt P06436 30-903); experiment: cell-based or functional assay
HSV-1F gB K204A = HSV-1F gB K204A (HSV-1 strain F, UniProt P06436 30-903); experiment: cell-based or functional assay
[9] = molecular target: glycoprotein B (gB) of HSV-2 strain G, full length, wild type (HSV-2 strain G); experiment: cell-based or functional assay

B1: HDIT101, humanized IgG1 MAb2c (antibody, V domains shown)
VH: QVTLKESGPALVKPTQTLTLTCTFSGFSLSTSGMSVGWIRQPPGKALEWLAHIWWNNDKYYKPALKSRLTISKDTSKNQVVLTMTNMDPVDTATYYCARIYYGYRPYAMDYWGQGTLVTVSS
VL: DIVMTQTPLSLPVTPGEPASISCRSSQSIVHSNGNTYLEWYLQKPGQSPQLLIYKVSNRFSGVPDRFSGSGSGTDFTLKISRVEAEDVGVYYCFQGSHVPWSFGQGTKVEIKR
notes: also called MAb hu2c; HDIT101 IgG
koff [1]: ~0.0011 s⁻¹ | binding result [2]: no binding

B2: HDIT101 Fab (Fab, V domains shown)
VH: B1 VH
VL: B1 VL
koff [3]: 0.00313 s⁻¹ | kon [4]: 435000 M⁻¹ s⁻¹ | Kd [5]: 7.26 nM

B3: HDIT102(H4), fully human IgG1 anti-HSV gB antibody (antibody, V domains shown)
VH: EVQLVQSGAEVKTPGASVRVSCKASGHTFRTFDINWVRQAAGQGLEWMGWMSPNSGNTGYARQFQGRVTMTRNISANTAYMELRGLRFDDTAVYYCARGPGSTGTTGSMDVWGQGTTVTVSS
VL: QAGLTQPPSVSVAPGKTARISCGGNNIGSKSVHWYQQKPGQAPVLVIYYDSDRPSGIPERFSGSNSGNTATLTISRVEAGDEADYYCQVWDSGSVVFGGGTKLTVLG
inhibition of gB-mediated cell-cell fusion by HDIT102(H4) (75 µg/ml), relative to wild type gB (HSV-1F gB Y326A): 72.7 % of WT | inhibition of gB-mediated cell-cell fusion by HDIT102(H4) (75 µg/ml), relative to wild type gB (HSV-1F gB R335A): 19.3 % of WT | inhibition of gB-mediated cell-cell fusion by HDIT102(H4) (75 µg/ml), relative to wild type gB [6]: 92.3 % of WT | inhibitory concentration for 50% neutralization (IC50) of 100 TCID50 cell-free HSV-1F on Vero cells [7]: 25.5 nM | inhibition of gB-mediated cell-cell fusion by HDIT102(H4) (75 µg/ml), relative to wild type gB [8]: 18.8 % of WT | inhibition of gB-mediated cell-cell fusion by HDIT102(H4) (75 µg/ml), relative to wild type gB (HSV-1F gB D199A): 32.9 % of WT | inhibition of gB-mediated cell-cell fusion by HDIT102(H4) (75 µg/ml), relative to wild type gB (HSV-1F gB K320A): 90.1 % of WT | inhibition of gB-mediated cell-cell fusion by HDIT102(H4) (75 µg/ml), relative to wild type gB (HSV-1F gB K204A): 57.3 % of WT | inhibitory concentration for 50% neutralization (IC50) of 100 TCID50 cell-free HSV-2G on Vero cells [9]: 12.5 nM

B4: HDIT102(H4) Fab (Fab, V domains shown)
VH: B3 VH
VL: B3 VL
notes: also called Fab HDIT102; Fab HDIT102 (H4)
koff [4]: 8.85e-05 s⁻¹ | kon [4]: 992000 M⁻¹ s⁻¹ | Kd [5]: 0.0895 nM
